Measured values reported in IntAct's records for PubMed 21880730.

B1: Nectin-3 (Mus musculus), Q9JLB9 (parent)
chain: MARTPGPAPLCPGGGKAQLSSAFPPAAGLLLPAPTPPPLLLLLIPLLLFSRLCGALAGSIIVEPHVTAVWGKNVSLKCLIEVNETITQISWEKIHGKSTQTVAVHHPQYGFSVQGDYQGRVLFKNYSLNDATITLHNIGFSDSGKYICKAVTFPLGNAQSSTTVTVLVEPTVSLIKGPDSLIDGGNETVAAVCVAATGKPVAQIDWEGDLGEMESSTTSFPNETATIVSQYKLFPTRFARGRRITCVVKHPALEKDIRYSFILDIQYAPEVSVTGYDGNWFVGRKGVNLKCNADANPPPFKSVWSRLDGQWPDGLLASDNTLHFVHPLTVNYSGVYVCKVSNSLGQRSDQKVIYISDPPTTTTLQPTVQWHSSPADVQDIATEHKKLPFPLSTLATLKDDTIGTIIASVVGGALFLVLVSILAGVFCYRRRRTFRGDYFAKNYIPPSDMQKESQIDVLHQDELDSYPDSVKKENKNPVNNLIRKDYLEEPEKTQWNNVENLTRFERPMDYYEDLKMGMKFVSDERYNESEDGLVSHVDGSVISRREWYV

Variants of: B1
Details: with afad_rat Afdn

| effect of a mutation on the interaction | Variant |
| --- | --- |
| decreasing interaction | MARTPGPAPLCPGGGKAQLSSAFPPAAGLLLPAPTPPPLLLLLIPLLLFSRLCGALAGSIIVEPHVTAVWGKNVSLKCLIEVNETITQISWEKIHGKSTQTVAVHHPQYGFSVQGDYQGRVLFKNYSLNDATITLHNIGFSDSGKYICKAVTLPLGNAQSSTTVTVLVEPTVSLIKGPDSLIDGGNETVAAVCVAATGKPVAQIDWEGDLGEMESSTTSFPNETATIVSQYKLFPTRFARGRRITCVVKHPALEKDIRYSFILDIQYAPEVSVTGYDGNWFVGRKGVNLKCNADANPPPFKSVWSRLDGQWPDGLLASDNTLHFVHPLTVNYSGVYVCKVSNSLGQRSDQKVIYISDPPTTTTLQPTVQWHSSPADVQDIATEHKKLPFPLSTLATLKDDTIGTIIASVVGGALFLVLVSILAGVFCYRRRRTFRGDYFAKNYIPPSDMQKESQIDVLHQDELDSYPDSVKKENKNPVNNLIRKDYLEEPEKTQWNNVENLTRFERPMDYYEDLKMGMKFVSDERYNESEDGLVSHVDGSVISRREWYV [F153L] |
